The values below come from patent publication US9133449B2, “Mutant pyrrolysyl-tRNA synthetase, and method for production of protein having non-natural amino acid integrated therein by using the same” (priority 2007, dated 2015).

The subject of one test is tRNA^Pyl. The test is described as follows: Aminoacylation assay of PylRS mutants / PylRS(c270). The test is classed as biochemical, Methanosarcina mazei.
Test [1] concerns amber stop codon in the chloramphenicol acetyltransferase (CAT) gene, E. coli DH10B cells. As to the kind of experiment: Positive selection by suppression of amber stop codon in CAT gene (chloramphenicol resistance). Type of test: cell-based.
Procedure: The PylRS mutant library was first subjected to a positive selection based on suppression of an amber stop codon located at a nonessential position in the chloramphenicol acetyltransferase (CAT) gene. […] Then the surviving cells were grown in the presence of chloramphenicol and the absence of Boc-Lys.

Procedure for tRNA^Pyl: The full length PylRS mutant was overexpressed in E. coli cells, and then purified using HisTrap column (Amersham Biosciences Inc.). Aminoacylation reaction was performed at ca. 37 degrees Celsius for 1 h. The reaction solution for aminoacylation comprises 2.83 μM of purified PylRS derived from M. mazei (or 9 μM of PylRS (c270)), 10 mM of MgCl2, 2 mM of ATP, 4 mM of DTT, 2.11 μM of transcript of M. mazei-derived tRNA^Pyl, and adequate amount of concentrated solution of a variety of amino acids dissolved in 100 mM of HEPES buffer (pH 7.2). Acid-urea polyacrylamide gel electrophoresis was used to analyze whether tRNA had been aminoacylated or not.

B1: PylRS(c270) mutant (Y306A) (protein, UniProt Q8PWY1 185-454, looked up, variant Y306A)
chain: ASAPALTKSQTDRLEVLLNPKDEISLNSGKPFRELESELLSRRKKDLQQIYAEERENYLGKLEREITRFFVDRGFLEIKSPILIPLEYIERMGIDNDTELSKQIFRVDKNFCLRPMLAPNLANYLRKLDRALPDPIKIFEIGPCYRKESDGKEHLEEFTMLNFCQMGSGCTRENLESIITDFLNHLGIDFKIVGDSCMVYGDTLDVMHGDLELSSAVVGPIPLDREWGIDKPWIGAGFGLERLLKVKHDFKNIKRAARSESYYNGISTNL
On to B1, for which the “esterification of tRNA^Pyl with Z-Lys” value in the test with tRNA^Pyl (substrate Z-Lys, compared with wild-type PylRS) is reported as “much more efficiently than the wild-type PylRS”.

B2: PylRS(c270): M. mazei PylRS of which the 184 amino acids from the N terminus were truncated (protein, UniProt Q8PWY1 185-454, looked up, fragment)
chain: ASAPALTKSQTDRLEVLLNPKDEISLNSGKPFRELESELLSRRKKDLQQIYAEERENYLGKLEREITRFFVDRGFLEIKSPILIPLEYIERMGIDNDTELSKQIFRVDKNFCLRPMLAPNLYNYLRKLDRALPDPIKIFEIGPCYRKESDGKEHLEEFTMLNFCQMGSGCTRENLESIITDFLNHLGIDFKIVGDSCMVYGDTLDVMHGDLELSSAVVGPIPLDREWGIDKPWIGAGFGLERLLKVKHDFKNIKRAARSESYYNGISTNL
As to B2, the “aminoacylation activity with pyrrolysine” value in the test with tRNA^Pyl (substrate pyrrolysine) is listed as “may esterify”.

B3: PylRS mutant (Y384F) (protein, UniProt Q8PWY1 1-454, looked up, variant Y384F)
Pyrrolysine--tRNA ligase: MDKKPLNTLISATGLWMSRTGTIHKIKHHEVSRSKIYIEMACGDHLVVNNSRSSRTARALRHHKYRKTCKRCRVSDEDLNKFLTKANEDQTSVKVKVVSAPTRTKKAMPKSVARAPKPLENTEAAQAQPSGSKFSPAIPVSTQESVSVPASVSTSISSISTGATASALVKGNTNPITSMSAPVQASAPALTKSQTDRLEVLLNPKDEISLNSGKPFRELESELLSRRKKDLQQIYAEERENYLGKLEREITRFFVDRGFLEIKSPILIPLEYIERMGIDNDTELSKQIFRVDKNFCLRPMLAPNLYNYLRKLDRALPDPIKIFEIGPCYRKESDGKEHLEEFTMLNFCQMGSGCTRENLESIITDFLNHLGIDFKIVGDSCMVFGDTLDVMHGDLELSSAVVGPIPLDREWGIDKPWIGAGFGLERLLKVKHDFKNIKRAARSESYYNGISTNL
For B3, the “concentration of chloramphenicol at which cells survived” value in test [1] (in the absence of Boc-Lys) is “less than 25 μg/ml”; in test [1] (in the presence of Boc-Lys (1 mM)) it was 150 µg/mL.
